Broadly, the Kd is the free concentration of one partner at which half of the binding sites on the other are occupied at equilibrium, for simple one-to-one binding. Low readings indicate a tighter complex, high ones a looser complex.

Among the targets are C1q (human, UniProt P02745); FcRn (human, UniProt P55899); FcγRIIIa (human, UniProt P08637).
Holding throughout (assay): BLI
A general note: Biolayer interferometry detects binding as a change in optical thickness at a sensor tip.

Another assay concerns the target T1, FcγRIIa (human, UniProt P12318).
T1 chain: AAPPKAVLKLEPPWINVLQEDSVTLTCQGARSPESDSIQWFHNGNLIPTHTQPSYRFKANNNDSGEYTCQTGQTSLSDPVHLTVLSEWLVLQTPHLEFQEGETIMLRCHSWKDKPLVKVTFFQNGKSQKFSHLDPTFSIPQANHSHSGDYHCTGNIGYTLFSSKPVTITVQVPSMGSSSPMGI

C1q, sequence (P02745 23-245, chain 1 of 3): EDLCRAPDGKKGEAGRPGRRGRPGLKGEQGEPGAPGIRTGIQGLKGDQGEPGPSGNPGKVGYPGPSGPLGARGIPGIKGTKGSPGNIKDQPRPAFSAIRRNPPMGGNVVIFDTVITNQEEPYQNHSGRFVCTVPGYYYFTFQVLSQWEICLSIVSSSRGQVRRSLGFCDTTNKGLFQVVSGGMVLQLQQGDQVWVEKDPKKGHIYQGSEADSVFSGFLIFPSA
C1q, sequence (P02746 28-253, chain 2 of 3, further chain): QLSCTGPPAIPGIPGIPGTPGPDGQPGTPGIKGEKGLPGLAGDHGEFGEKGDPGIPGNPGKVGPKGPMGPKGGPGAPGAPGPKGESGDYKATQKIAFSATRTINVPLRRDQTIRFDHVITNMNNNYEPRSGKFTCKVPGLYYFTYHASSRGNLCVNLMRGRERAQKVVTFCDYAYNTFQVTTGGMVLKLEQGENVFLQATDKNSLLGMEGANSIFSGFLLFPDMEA
C1q, sequence (P02747 29-245, chain 3 of 3, further chain): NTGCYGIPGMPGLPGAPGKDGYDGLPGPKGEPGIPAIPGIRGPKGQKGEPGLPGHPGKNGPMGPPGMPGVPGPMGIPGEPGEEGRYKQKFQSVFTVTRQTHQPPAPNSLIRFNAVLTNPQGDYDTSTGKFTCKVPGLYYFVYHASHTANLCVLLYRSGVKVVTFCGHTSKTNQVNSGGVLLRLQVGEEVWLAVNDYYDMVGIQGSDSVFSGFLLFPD
FcRn, sequence (P55899 24-297, chain 1 of 2): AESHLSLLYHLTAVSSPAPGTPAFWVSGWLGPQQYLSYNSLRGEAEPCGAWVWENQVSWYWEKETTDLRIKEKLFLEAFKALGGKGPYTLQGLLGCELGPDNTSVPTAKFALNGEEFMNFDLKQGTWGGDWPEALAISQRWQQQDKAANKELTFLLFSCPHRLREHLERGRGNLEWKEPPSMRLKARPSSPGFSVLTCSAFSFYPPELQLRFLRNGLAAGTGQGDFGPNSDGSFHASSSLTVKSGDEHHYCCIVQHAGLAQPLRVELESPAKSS
FcRn, sequence (chain, as listed by the source, chain 2 of 2): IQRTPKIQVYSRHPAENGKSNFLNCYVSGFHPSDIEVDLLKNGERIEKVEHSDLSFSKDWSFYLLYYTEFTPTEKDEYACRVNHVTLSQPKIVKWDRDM
FcγRIIIa, sequence (P08637 17-208): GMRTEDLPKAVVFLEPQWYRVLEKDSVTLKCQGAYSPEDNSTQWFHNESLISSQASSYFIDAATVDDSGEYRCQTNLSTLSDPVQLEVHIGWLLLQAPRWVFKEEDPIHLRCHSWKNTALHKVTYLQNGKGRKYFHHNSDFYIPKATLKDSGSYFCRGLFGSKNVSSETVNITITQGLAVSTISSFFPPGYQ

B1: Q-SBL-127 (antibody)
chain 1: not shown
chain 2: not shown
chain 3: EVQLVESGGGLVQPGGSLRLSCAASGYTFTNYGMNWVRQAPGKGLEWVGWINTYTGEPTYAADFKRRFTFSLDTSKSTAYLQMNSLRAEDTAVYYCAKYPHYYGSSHWYFDVWGQGTLVTVSSASTKGPSVFPLAPSSKSTSGGTAALGCLVKDYFPEPVTVSWNSGALTSGVHTFPAVLQSSGLYSLSSVVTVPSSSLGTQTYICNVNHKPSNTKVDKKVEPKSCDKTHTCPPCPAPELLGGPSVFLFPPKPKDTLMISRTPEVTCVVVDVSHEDPEVKFNWYVDGVEVHNAKTKPREEQYNSTYRVVSVLTVLHQDWLNGKEYKCKVSNKALPAPIEKTISKAKGQPREPQVCTLPPSREEMTKNQVSLWCLVKGFYPSDIAVEWESNGQPENNYKTTPPVLFSDGSFFLYSKLTVDKSRWQQGNVFSCSVMHEALHNHYTQKSLSLSPGK
chain 4: not shown
Turning to B1, the Kd with C1q was found to be 18 nM; with FcγRIIa it was 1630 nM; with FcRn it was 750 nM; in the assay with FcγRIIIa it was 230 nM.

B2: Q-SBL-130 (antibody)
chain 1: not shown
chain 2: not shown
chain 3: EVQLVESGGGLVQPGGSLRLSCAASGYTFTNYGMNWVRQAPGKGLEWVGWINTYTGEPTYAADFKRRFTFSLDTSKSTAYLQMNSLRAEDTAVYYCAKYPHYYGSSHWYFDVWGQGTLVTVSSASTKGPSVFPLAPSSKSTSGGTAALGCLVKDYFPEPVTVSWNSGALTSGVHTFPAVLQSSGLYSLSSVVTVPSSSLGTQTYICNVNHKPSNTKVDKKVEPKSCDKTHTCPPCPAPELLGGPSVFLFPPKPKDTLMISRTPEVTCVVVDVSHEDPEVKFNWYVDGVEVHNAKTKPREEQYNSTYRVVSVLTVLHQDWLNGKEYKCKVSNKALPAPIEKTISKAKGQPREPQVCTLPPSREEMTKNQVSLWCLVKGFYPSDIAVEWESNGQPENNYKTTPPVLFSDGSFFLYSKLTVDKSRWQQGNVFSCSVMHEALHNHYTQKSLSLSPGK
chain 4: not shown
For B2, the Kd in the assay with C1q is 17 nM; with FcγRIIa, 1720 nM; in the assay with FcRn, 740 nM; in the assay with FcγRIIIa, 290 nM.

B3: Q-SBL-131 (antibody)
chain 1: not shown
chain 2: not shown
chain 3: EVQLVESGGGLVQPGGSLRLSCAASGYTFTNYGMNWVRQAPGKGLEWVGWINTYTGEPTYAADFKRRFTFSLDTSKSTAYLQMNSLRAEDTAVYYCAKYPHYYGSSHWYFDVWGQGTLVTVSSASTKGPSVFPLAPSSKSTSGGTAALGCLVKDYFPEPVTVSWNSGALTSGVHTFPAVLQSSGLYSLSSVVTVPSSSLGTQTYICNVNHKPSNTKVDKKVEPKSCDKTHTCPPCPAPELLGGPSVFLFPPKPKDTLMISRTPEVTCVVVDVSHEDPEVKFNWYVDGVEVHNAKTKPREEQYNSTYRVVSVLTVLHQDWLNGKEYKCKVSNKALPAPIEKTISKAKGQPREPQVCTLPPSREEMTKNQVSLWCLVKGFYPSDIAVEWESNGQPENNYKTTPPVLFSDGSFFLYSKLTVDKSRWQQGNVFSCSVMHEALHNHYTQKSLSLSPGK
chain 4: not shown
Regarding B3, the Kd in the assay with C1q came to 16 nM; with FcγRIIa, 1620 nM; with FcRn, 670 nM; in the assay with FcγRIIIa, 330 nM.

B4: Q-SBL-109 (antibody)
chain 1: not shown
chain 2: not shown
chain 3: EVQLVESGGGLVQPGGSLRLSCAASGYTFTNYGMNWVRQAPGKGLEWVGWINTYTGEPTYAADFKRRFTFSLDTSKSTAYLQMNSLRAEDTAVYYCAKYPHYYGSSHWYFDVWGQGTLVTVSSASTKGPSVFPLAPSSKSTSGGTAALGCLVKDYFPEPVTVSWNSGALTSGVHTFPAVLQSSGLYSLSSVVTVPSSSLGTQTYICNVNHKPSNTKVDKKVEPKSCDKTHTCPPCPAPELLGGPSVFLFPPKPKDTLMISRTPEVTCVVVDVSHEDPEVKFNWYVDGVEVHNAKTKPREEQYNSTYRVVSVLTVLHQDWLNGKEYKCKVSNKALPAPIEKTISKAKGQPREPQVCTLPPSRREMTKNQVSLWCLVKGFYPSDIAVEWESNGQPENNYKTTPPVLDSDGSFFLYSKLTVDKSRWQQGNVFSCSVMHEALHNHYTQKSLSLSPGK
chain 4: not shown
In the case of B4, the Kd in the assay with C1q was determined as 28 nM; with FcγRIIa, 2200 nM; with FcRn, 640 nM; with FcγRIIIa it was 340 nM.

B5: Q-SBL-102 (antibody)
chain 1: not shown
chain 2: not shown
chain 3: EVQLVESGGGLVQPGGSLRLSCAASGYTFTNYGMNWVRQAPGKGLEWVGWINTYTGEPTYAADFKRRFTFSLDTSKSTAYLQMNSLRAEDTAVYYCAKYPHYYGSSHWYFDVWGQGTLVTVSSASTKGPSVFPLAPSSKSTSGGTAALGCLVKDYFPEPVTVSWNSGALTSGVHTFPAVLQSSGLYSLSSVVTVPSSSLGTQTYICNVNHKPSNTKVDKKVEPKSCDKTHTCPPCPAPELLGGPSVFLFPPKPKDTLMISRTPEVTCVVVDVSHEDPEVKFNWYVDGVEVHNAKTKPREEQYNSTYRVVSVLTVLHQDWLNGKEYKCKVSNKALPAPIEKTISKAKGQPREPQVCTLPPSREEMTKNQVSLWCLVKGFYPSDIAVEWESNGQPENNYKTTPPVLHSDGSFFLYSKLTVDKSRWQQGNVFSCSVMHEALHNHYTQKSLSLSPGK
chain 4: not shown
With B5, the Kd with C1q is 40 nM; with FcγRIIa, 1700 nM; with FcRn, 710 nM; with FcγRIIIa, 420 nM.

B6: Q-SBL-137 (antibody)
chain 1: not shown
chain 2: not shown
chain 3: EVQLVESGGGLVQPGGSLRLSCAASGYTFTNYGMNWVRQAPGKGLEWVGWINTYTGEPTYAADFKRRFTFSLDTSKSTAYLQMNSLRAEDTAVYYCAKYPHYYGSSHWYFDVWGQGTLVTVSSASTKGPSVFPLAPSSKSTSGGTAALGCLVKDYFPEPVTVSWNSGALTSGVHTFPAVLQSSGLYSLSSVVTVPSSSLGTQTYICNVNHKPSNTKVDKKVEPKSCDKTHTCPPCPAPELLGGPSVFLFPPKPKDTLMISRTPEVTCVVVDVSHEDPEVKFNWYVDGVEVHNAKTKPREEQYNSTYRVVSVLTVLHQDWLNGKEYKCKVSNKALPAPIEKTISKAKGQPREPQVCTLPPSREEMTKNQVSLWCLVKGFYPSDIAVEWESNGQPENNYKTTPPVLDSDGSFFLYSSLTVDKSRWQQGNVFSCSVMHEALHNHYTQKSLSLSPGK
chain 4: not shown
As to B6, the Kd worked out at 24 nM with C1q, 2120 nM with FcγRIIa, 580 nM with FcRn and 380 nM in the assay with FcγRIIIa.

B7: Q-SBL-116 (antibody)
chain 1: not shown
chain 2: not shown
chain 3: EVQLVESGGGLVQPGGSLRLSCAASGYTFTNYGMNWVRQAPGKGLEWVGWINTYTGEPTYAADFKRRFTFSLDTSKSTAYLQMNSLRAEDTAVYYCAKYPHYYGSSHWYFDVWGQGTLVTVSSASTKGPSVFPLAPSSKSTSGGTAALGCLVKDYFPEPVTVSWNSGALTSGVHTFPAVLQSSGLYSLSSVVTVPSSSLGTQTYICNVNHKPSNTKVDKKVEPKSCDKTHTCPPCPAPELLGGPSVFLFPPKPKDTLMISRTPEVTCVVVDVSHEDPEVKFNWYVDGVEVHNAKTKPREEQYNSTYRVVSVLTVLHQDWLNGKEYKCKVSNKALPAPIEKTISKAKGQPREPQVCTLPPSRKEMTKNQVSLWCLVKGFYPSDIAVEWESNGQPENNYKTTPPVLDSDGSFFLYSKLTVDKSRWQQGNVFSCSVMHEALHNHYTQKSLSLSPGK
chain 4: not shown
With B7, the Kd turned out to be 33 nM in the assay with C1q, 2340 nM in the assay with FcγRIIa, 650 nM with FcRn and 370 nM in the assay with FcγRIIIa.

The values are drawn from patent publication US20260365755 (published 2026).
